Measurements as given in paper PMC7734321, “Lesion Recognition and Cleavage of Damage-Containing Quadruplexes and Bulged Structures by DNA Glycosylases”.

Tests used:
[1] = target: T1, Fpg (formamidopyrimidine-DNA glycosylase) (Escherichia coli, UniProt P05523 2-269); experiment: MST; MST: 50 mM Tris-HCl pH 7.5, 50 mM KCl, 1 mM EDTA, 1 mM DTT, 7% glycerol, 25 C, 10 min, 0.5 uM DNA; authors call Kd values estimates only; details: protein: recombinant, tags: none (native form without tags)
T1 sequence: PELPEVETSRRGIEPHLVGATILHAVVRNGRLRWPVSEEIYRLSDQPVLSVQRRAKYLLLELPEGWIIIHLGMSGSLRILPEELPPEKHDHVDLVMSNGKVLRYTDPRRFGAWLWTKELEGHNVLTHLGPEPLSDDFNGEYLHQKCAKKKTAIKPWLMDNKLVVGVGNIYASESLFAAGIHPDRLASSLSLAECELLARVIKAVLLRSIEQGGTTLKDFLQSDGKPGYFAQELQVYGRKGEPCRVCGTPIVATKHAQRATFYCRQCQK

Nei (endonuclease VIII) = target: T2, Nei (endonuclease VIII) (Escherichia coli, UniProt P50465 2-263); experiment: as above; details: protein: recombinant, tags: none (native form without tags)
T2 sequence: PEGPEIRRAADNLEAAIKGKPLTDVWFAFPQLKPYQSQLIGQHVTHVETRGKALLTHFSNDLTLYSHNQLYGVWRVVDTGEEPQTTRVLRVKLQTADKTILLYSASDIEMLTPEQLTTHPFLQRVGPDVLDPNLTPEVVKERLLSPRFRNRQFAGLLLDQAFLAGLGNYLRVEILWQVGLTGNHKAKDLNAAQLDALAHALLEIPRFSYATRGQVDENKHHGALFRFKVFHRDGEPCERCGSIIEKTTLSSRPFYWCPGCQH

[2] = target: NEIL1 (endonuclease VIII-like 1) (Homo sapiens, UniProt Q96FI4 2-390); experiment: as above; details: protein: recombinant
Sequence of NEIL1 (endonuclease VIII-like 1) (Q96FI4 2-390): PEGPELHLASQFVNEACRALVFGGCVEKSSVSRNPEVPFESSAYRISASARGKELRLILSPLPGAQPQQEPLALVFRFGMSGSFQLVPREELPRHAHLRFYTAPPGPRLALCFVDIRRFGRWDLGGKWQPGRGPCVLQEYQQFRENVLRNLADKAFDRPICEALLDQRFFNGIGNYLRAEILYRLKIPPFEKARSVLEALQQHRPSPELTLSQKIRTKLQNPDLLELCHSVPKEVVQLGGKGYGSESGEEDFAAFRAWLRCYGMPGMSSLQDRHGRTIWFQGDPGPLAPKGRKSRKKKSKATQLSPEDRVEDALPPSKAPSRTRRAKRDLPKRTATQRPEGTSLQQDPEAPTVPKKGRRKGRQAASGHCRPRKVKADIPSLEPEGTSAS

[3] = target: T3, OGG1 (8-oxoguanine-DNA glycosylase) (Homo sapiens, UniProt O15527 1-345); experiment: as above; details: protein: recombinant
T3 sequence (O15527 whole entry): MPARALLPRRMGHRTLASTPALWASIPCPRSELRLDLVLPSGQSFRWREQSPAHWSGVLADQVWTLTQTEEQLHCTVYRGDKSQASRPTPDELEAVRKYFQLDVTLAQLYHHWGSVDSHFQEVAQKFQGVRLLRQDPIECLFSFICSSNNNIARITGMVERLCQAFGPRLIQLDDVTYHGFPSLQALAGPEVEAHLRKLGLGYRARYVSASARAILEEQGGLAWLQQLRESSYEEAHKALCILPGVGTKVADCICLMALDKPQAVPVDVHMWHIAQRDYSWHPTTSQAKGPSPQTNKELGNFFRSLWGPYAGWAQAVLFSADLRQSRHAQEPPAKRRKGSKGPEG

NTH1 (endonuclease III) = target: T4, NTH1 (endonuclease III) (Homo sapiens, UniProt P78549 1-304); experiment: as above; details: protein: recombinant
T4 sequence: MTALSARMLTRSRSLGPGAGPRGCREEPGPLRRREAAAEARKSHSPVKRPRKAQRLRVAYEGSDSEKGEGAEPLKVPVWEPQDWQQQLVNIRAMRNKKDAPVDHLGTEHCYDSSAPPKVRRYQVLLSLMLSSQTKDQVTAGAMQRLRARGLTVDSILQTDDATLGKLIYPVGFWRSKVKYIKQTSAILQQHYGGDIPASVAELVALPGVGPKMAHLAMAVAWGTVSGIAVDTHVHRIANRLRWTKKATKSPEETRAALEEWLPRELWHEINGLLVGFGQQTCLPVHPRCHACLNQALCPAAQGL

[4] = target: T1, Fpg (formamidopyrimidine-DNA …); experiment: stopped-flow FRET; DNA bending phase before cleavage; MST: 50 mM Tris-HCl pH 7.5, 50 mM KCl, 1 mM EDTA, 1 mM DTT, 7% glycerol, 25 C, 10 min, 0.5 uM DNA; authors call Kd values estimates only; details: protein: recombinant; tags: none (native form without tags); label: 5'-FAM on strand 1; blunt
[5] = target: T3, OGG1 (8-oxoguanine-DNA glycosylase); experiment: as above; details: protein: recombinant; label: 5'-FAM on strand 1; blunt
[6] = label: 5'-FAM, 3'-BHQ1, G-quadruplex
[7] = label: 5'-FAM on strand 2, blunt

TTAGGGTTAGGGTTAGGGTTAGGGTT (structured_DNA) [Q4] gave a Kd ([1]; G-quadruplex) of 1000 ± 300 nM, a Kd (Nei (endonuclease VIII); G-quadruplex) of 900 ± 200 nM and a Kd ([2]; G-quadruplex) of 3400 ± 500 nM. The Kd ([3]; G-quadruplex) was 700 ± 200 nM and the Kd (NTH1 (endonuclease III); G-quadruplex) was 2500 ± 800 nM.

TTAGGGTTAGGGTTAGGGTTAGGGTT (structured_DNA, T14 = thymine glycol) [Q4-Tg] showed a Kd (Nei (endonuclease VIII); [6]) of 800 ± 200 nM, a Kd [2, 6] of 9100 ± 3000 nM and a Kd (NTH1 (endonuclease III); [6]) of 1300 ± 300 nM.

TTAGGGTTAGGGTTAGGGTTAGGGTT (structured_DNA, G17 = 8-oxoguanine) [Q4-oxoG] was tested, and the Kd [1, 6] was 1200 ± 400 nM and the Kd [3, 6] was 1200 ± 300 nM.

B1: C/G (dsDNA)
DNA 1: GCTCACGTACAGAGCTG
DNA 2: CAGCTCTGTACGTGAGC
Binder B1 has a Kd [1, 7] of 1600 ± 1100 nM, a Kd (Nei (endonuclease VIII); [7]) of 3100 ± 700 nM and a Kd [2, 7] of 17000 ± 15000 nM. The Kd [3, 7] was 1400 ± 500 nM and the Kd (NTH1 (endonuclease III); [7]) was 700 ± 400 nM.

B2: Type I oxoG/C (dsDNA)
DNA 1: GCTCAGGTACAGAGCTG
DNA 2: CAGCTCTGTACCTGAGC
modifications: G6 of strand 1 = 8-oxoguanine, opposite C
B2: binds [4]; binds [5].
